B2: GAL4 transactivation domain fusion of AtDPb 1-385 (prey in pAD-GAL424) (other, not shown: large carriers)
chain: MTTTGSNSNHNHHESNNNNNNPSTRSWGTAVSGQSVSTSGSMGSPSSRSEQTITVVTSTSDTTFQRLNNLDIQGDDAGSQGASGVKKKKRGQRAAGPDKTGRGLRQFSMKVCEKVESKGRTTYNEVADELVAEFALPNNDGTSPDQQQYDEKNIRRRVYDALNVLMAMDIISKDKKEIQWRGLPRTSLSDIEELKNERLSLRNRIEKKTAYSQELEEQYVGLQNLIQRNEHLYSSGNAPSGGVALPFILVQTRPHATVEVEISEDMQLVHFDFNSTPFELHDDNFVLKTMKFCDQPPQQPNGRNNSQLVCHNFTPENPNKGPSTGPTPQLDMYETHLQSQQHQQHSQLQIIPMPETNNVTSSADTAPVKSPSLPGIMNSSMKPEN
notes: also called full-length AtDPb prey
B4: pGBTE2Fb 1-127: GAL4 DNA-binding domain fusion of AtE2Fb amino acids 1-127 (other)
chain: MKLLSSIEQACDICRLKKLKCSKEKPKCAKCLKNNWECRYSPKTKRSPLTRAHLTEVESRLERLEQLFLLIFPREDLDMILKMDSLQDIKALLTGLFVQDNVNKDAVTDRLASVETDMPLTLRQHRISATSSSEESSNKGQRQLTVSMSEEVPQQFPSSKRQLHPSLSSMKPPLVAPGEYHRFDAAETRGGGAVADQVVSDAIVIKSTLKRKTDLVNQIVEVNELNTGVLQTPVSGKGGKAKKTSRSAKSNKSGTLASGSNAGSPGNNFAQAGT
B5: pGBTE2Fa226-356: GAL4 DNA-binding domain fusion of AtE2Fa amino acids 226-356 (other)
chain: MKLLSSIEQACDICRLKKLKCSKEKPKCAKCLKNNWECRYSPKTKRSPLTRAHLTEVESRLERLEQLFLLIFPREDLDMILKMDSLQDIKALLTGLFVQDNVNKDAVTDRLASVETDMPLTLRQHRISATSSSEESSNKGQRQLTVSNRILWKGVDACPGDEDADVSVLQLQAEIENLALEEQALDNQIRQTEERLRDLSENEKNQKWLFVTEEDIKSLPGFQNQTLIAVKAPHGTTLEVPDPDEAADHPQRRYRIILRSTMGPIDVYLVSEFEGKFE
notes: also called E2F5 dimerisation domain; E2Fa (=E2F5) dimerization domain

Legend:
[1] = biological target: T1, HA-tagged wild-type AtE2Fb, in vitro translated (Arabidopsis, UniProt Q9FV71 1-469); assay: co-immunoprecipitation (anti-HA and anti-c-myc) of in vitro co-translated tagged proteins, SDS-PAGE autoradiography
T1 construct: wild-type (whole) protein; also called HA-AtE2Fb; E2F3
T1 sequence (Q9FV71 1-469, tags or fused parts left off): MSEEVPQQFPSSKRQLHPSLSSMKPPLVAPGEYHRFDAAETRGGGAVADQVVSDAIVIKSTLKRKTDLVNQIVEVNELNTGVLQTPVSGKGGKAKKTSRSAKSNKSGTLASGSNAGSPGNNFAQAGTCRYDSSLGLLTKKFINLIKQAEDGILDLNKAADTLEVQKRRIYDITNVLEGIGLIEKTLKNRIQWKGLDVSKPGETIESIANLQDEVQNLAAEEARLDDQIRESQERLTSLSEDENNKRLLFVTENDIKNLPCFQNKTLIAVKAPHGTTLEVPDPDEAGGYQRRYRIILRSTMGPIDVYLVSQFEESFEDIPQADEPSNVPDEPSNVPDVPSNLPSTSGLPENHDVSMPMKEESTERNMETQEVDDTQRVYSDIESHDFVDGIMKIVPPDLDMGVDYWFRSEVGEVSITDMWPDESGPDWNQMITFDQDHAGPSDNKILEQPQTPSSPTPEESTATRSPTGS
Description: (§1) In vitro transcription and translation experiments were performed using the TNT T7-coupled wheat germ extract kit (Promega) primed with appropriate plasmids for 90 min at 30° C. For immunoprecipitation, 10 μl of the total in vitro translated extract (50 μl) was diluted at 1:5 in Nonidet P40 buffer (50 mM Tris, pH 7.4, 150 mM NaCl, 1% Nonidet P40, 1 mM phenylmethylsulfonyl fluoride, 10 μg/ml leupeptin/aprotinin/pepstatin) and incubated for 2 h at 4° C. with anti-c-myc (9E10; BabCo) or anti-HA (16B12; BabCo) antibodies. Protein-A-Sepharose (40 μl 25% (v/v)) was added and incubated for 1 h at 4° C., then the beads were washed four times with Nonidet P40 buffer. Immune complexes were eluted with 10 μl […] sodium dodecyl sulfate (SDS) sample buffer and analyzed by 10% or 15% SDS-PAGE and by autoradiography.
(§2) Similar results were obtained by two-hybrid analysis (see Table 5 of Example 12). To test whether the structural requirements for heterodimerization of the AtDPs were similar to those of their animal homologs, several deletion mutants of AtDPa and AtDPb were constructed (for a schematic illustration, see FIGS. 52 and 53), tagged with the c-myc epitope (FIGS. 54 and 55, panels A). The interactions between the mutant AtDPs and AtE2Fb were analyzed in immunoprecipitation experiments with the specific anti-HA or anti-c-myc antibodies ([…], panels B and C, respectively). […]

[2] = biological target: T2, pGBT DPa 1-292: GAL4 DNA-binding domain fusion of AtDPa 1-292 (Arabidopsis thaliana); assay: yeast two-hybrid, growth on His- minimal medium; legend: -, no interaction
T2 construct: its construction is not described

[3] = biological target: T3, pGBT DPb 1-385: GAL4 DNA-binding domain fusion of AtDPb 1-385 (Arabidopsis thaliana); assay: as above
T3 construct: its construction is not described

[4] = biological target: T4, pGBTE2Fb-Rb: GAL4 DNA-binding domain fusion of AtE2Fb amino acids 1-385 (lacking the Rb-binding domain) (Arabidopsis); assay: yeast two-hybrid, growth on His- minimal medium; legend: +, positive interaction
T4 construct: also called E2F3 N-terminal; E2Fb (=E2F3) N-terminal domain
Description: (§3) Different combinations between bait (pGBTE2Fa226-356, pGBTE2Fb-Rb, or pGBTE2Fb 1-127, SEQ ID NO:207) and prey constructs were transformed into yeast cells and assayed for their ability to grow on His⁻ minimal media after 3 days of incubation at 30° C. Bait plasmids co-transformed with empty pAD-GAL424 and prey plasmids co-transformed with empty pGBT9 were assessed along as controls for the specificity of the interaction.
(§4) Different combinations between AtE2Fs bait and AtDPs prey constructs were tested for growth on His minimal media. −, no interaction; +, positive interaction; NT, not tested.

[5] = biological target: T5, empty pGBT9 (GAL4 DNA-binding domain alone) (UniProt P04386 1-147); assay: yeast two-hybrid, growth on His- minimal medium; empty bait vector control; legend: -, no interaction
T5 construct: empty bait vector, control for specificity; also called pBGT9
Description: as §3, §4

[6] = biological target: B5; assay: yeast two-hybrid, growth on His- minimal medium; legend: -, no interaction
[7] = biological target: T4, pGBTE2Fb-Rb: GAL4 DNA-binding domain …; assay: as above
[8] = biological target: B4; assay: as above
[9] = biological target: T6, GAL4 transactivation domain fusion of AtDPa 1-292 (prey in pAD-GAL424) (Arabidopsis thaliana, UniProt Q9FNY3 1-292); assay: as above
T6 construct: also called full-length AtDPa prey
T6 sequence: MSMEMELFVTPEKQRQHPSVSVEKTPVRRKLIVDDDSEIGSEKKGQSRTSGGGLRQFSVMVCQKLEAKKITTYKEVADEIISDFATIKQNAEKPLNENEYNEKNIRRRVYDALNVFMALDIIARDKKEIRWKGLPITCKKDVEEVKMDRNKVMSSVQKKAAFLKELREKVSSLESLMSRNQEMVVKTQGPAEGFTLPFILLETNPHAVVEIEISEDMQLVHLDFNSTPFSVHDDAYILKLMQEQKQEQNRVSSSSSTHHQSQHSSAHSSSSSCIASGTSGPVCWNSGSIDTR

[10] = biological target: B2; assay: as above
[11] = biological target: T7, CCP16, two-hybrid prey clone E2F5BBC1 (Arabidopsis thaliana, UniProt Q9FNY3 1-292); assay: yeast two-hybrid library screen (GAL4, His prototrophy in HF7c); prey clone isolated with this bait
T7 construct: partial protein read from the clone; also called DPa; AtDPa
T7 sequence: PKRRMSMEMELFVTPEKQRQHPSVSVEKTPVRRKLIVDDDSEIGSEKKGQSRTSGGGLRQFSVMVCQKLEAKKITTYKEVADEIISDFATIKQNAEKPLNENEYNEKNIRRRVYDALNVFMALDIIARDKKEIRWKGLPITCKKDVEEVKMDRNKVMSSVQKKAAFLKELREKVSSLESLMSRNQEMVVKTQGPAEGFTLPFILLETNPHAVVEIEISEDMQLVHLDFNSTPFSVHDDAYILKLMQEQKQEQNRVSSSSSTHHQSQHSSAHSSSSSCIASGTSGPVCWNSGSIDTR
Description: For library screening, vectors and strains (HF7c) were provided with the Matchmaker two-hybrid system (Clontech). The dimerization and DNA-binding domains of the AtE2Fa (amino acids 226-356; SEQ ID NO:205) were amplified by polymerase chain reaction (PCR) and subcloned in-frame with the GAL4 DNA-binding domain of pGBT9 (Clontech) to create the bait plasmid pGBTE2Fa226-356. Screens were performed as described previously (De Veylder et al. 1999; Planta 208, 453-462). A second library screening was performed with the AtE2Fb construct (pGBTE2Fb-Rb) lacking the Rb-binding domain (amino acids 1-385; SEQ ID-NO:206). Plasmids from interacting clones were isolated and sequenced.

[12] = biological target: T6, GAL4 transactivation domain fusion of …; assay: yeast two-hybrid, growth on His- minimal medium; legend: +, positive interaction
Description: as §3, §4

[13] = biological target: B2; assay: as above
Description: as §3, §4

[14] = biological target: T1, HA-tagged wild-type AtE2Fb, in vitro …; assay: co-immunoprecipitation (anti-HA) of in vitro co-translated tagged proteins, SDS-PAGE autoradiography
Description: as §1, §2

B1: c-myc-tagged AtDPa 172-292, in vitro translated (other)
chain: EQKLISEEDLEQKLISEEDLSLESLMSRNQEMVVKTQGPAEGFTLPFILLETNPHAVVEIEISEDMQLVHLDFNSTPFSVHDDAYILKLMQEQKQEQNRVSSSSSTHHQSQHSSAHSSSSSCIASGTSGPVCWNSGSIDTR
notes: also called c-myc-AtDPa 172-292
binding result [1]: no binding

B2
binding result [2]: no binding
binding result [3]: no binding
binding result [4]: binds

B3: GAL4 transactivation domain fusion of AtE2Fa 226-356 (prey of Table V) (other, not shown: large carriers)
chain: NRILWKGVDACPGDEDADVSVLQLQAEIENLALEEQALDNQIRQTEERLRDLSENEKNQKWLFVTEEDIKSLPGFQNQTLIAVKAPHGTTLEVPDPDEAADHPQRRYRIILRSTMGPIDVYLVSEFEGKFE
notes: its construction is not described
binding result [5]: no binding
binding result [6]: no binding
binding result [7]: no binding
binding result [8]: no binding

B4
binding result [9]: no binding
binding result [10]: no binding

B5
binding result [11]: binds
binding result [12]: binds
binding result [13]: binds

B6: c-myc-tagged AtDPa 121-213, in vitro translated (other)
chain: EQKLISEEDLEQKLISEEDLIIARDKKEIRWKGLPITCKKDVEEVKMDRNKVMSSVQKKAAFLKELREKVSSLESLMSRNQEMVVKTQGPAEGFTLPFILLETNPHAVVEIEI
notes: also called c-myc-AtDPa 121-213; predicted dimerization domain of the AtDPa
binding result [14]: no binding

Source: patent publication US20080207449A1 (CROPDESIGN N V, published 2008)
